The source of these data is patent US12721801B2, “Compositions and methods relating to stimulation of hyaluronic acid” (Alastin Skincare, Inc., priority 2020, dated 2026).

The test system of one assay is human dermal fibroblasts. Particulars: cited from earlier work.
In a further assay the test system is human fibroblast cells. The assay is described as follows: HA production assessment, SDS-PAGE of fibroblast supernatants. Conditions: Experiment 2, primary adult human dermal fibroblasts, 72 hours, octapeptide 100 ug/mL, SymDecanox 250 ug/mL, others 500 ug/mL, FIG. 6. It is filed as cell-based. As to the method:
In a second experiment, HA production was also assessed with the test compounds below. Briefly, primary adult human dermal fibroblast cells were cultured until near confluent in 6 well plates. The cells were treated with the compounds and concentrations indicated to the right. After 72 hours, 100 μL of media were collected from each treatment condition and was concentrated in a SpeedVac concentrator to a final volume of ~10 uL.
All 10 μL of the supernatants were loaded onto an acrylamide gel (NuPAGE 4-12% Bis-Tris Protein Gel) and run at 200V for 3 hours. The gel was stained to detect the presence of HA. Data is seen in FIG. 6. […] Lane 11 is the negative control, representing the untreated cells. This band represents the cells constitutive level of HA. Treating the cells with all the indicated compounds (lanes 1-10) produced an increased level of high molecular weight HA. […]

B1: Lactoferrin: a transferrin; wound healing attributes, increases HA secretion (protein, UniProt P02788 20-710, looked up)
Lactotransferrin: GRRRSVQWCAVSQPEATKCFQWQRNMRKVRGPPVSCIKRDSPIQCIQAIAENRADAVTLDGGFIYEAGLAPYKLRPVAAEVYGTERQPRTHYYAVAVVKKGGSFQLNELQGLKSCHTGLRRTAGWNVPIGTLRPFLNWTGPPEPIEAAVARFFSASCVPGADKGQFPNLCRLCAGTGENKCAFSSQEPYFSYSGAFKCLRDGAGDVAFIRESTVFEDLSDEAERDEYELLCPDNTRKPVDKFKDCHLARVPSHAVVARSVNGKEDAIWNLLRQAQEKFGKDKSPKFQLFGSPSGQKDLLFKDSAIGFSRVPPRIDSGLYLGSGYFTAIQNLRKSEEEVAARRARVVWCAVGEQELRKCNQWSGLSEGSVTCSSASTTEDCIALVLKGEADAMSLDGGYVYTAGKCGLVPVLAENYKSQQSSDPDPNCVDRPVEGYLAVAVVRRSDTSLTWNSVKGKKSCHTAVDRTAGWNIPMGLLFNQTGSCKFDEYFSQSCAPGSDPRSNLCALCIGDEQGENKCVPNSNERYYGYTGAFRCLAENAGDVAFVKDVTVLQNTDGNNNEAWAKDLKLADFALLCLDGKRKPVTEARSCHLAMAPNHAVVSRMDKVERLKQVLLHQQAKFGRNGSDCPDKFCLFQSETKNLLFNDNTECLARLHGKTTYEKYLGPQYVAGITNLKKCSTSPLLEACEFLRK
For the molecule B1, in the assay on human dermal fibroblasts (literature (Saito et al. 2011)), the HA secretion result is “increases HA secretion”. Also, in the assay with human dermal fibroblasts (literature (Saito et al. 2011; Takayama 2012)), the Proliferation of fibroblasts result was “promotes proliferation of fibroblasts”. Besides, the “Level of high molecular weight HA (band on gel)” value in the assay on human fibroblast cells is reported as “secrete high molecular weight HA”.
